# From patent publication US20070054846A1, “Bcl-w structure and uses therefor” (priority 2002, published 2007)
# Tests used:
# FDC-P1 myeloid cells = test: Survival assay of cells overexpressing Bcl-w constructs; assay type: cell-based; conditions: overexpressed FLAG-tagged protein, IL-3 withdrawal, γ-irradiation or cytotoxic drugs
# Protocol: Like its cousins Bcl-2 and Bcl-xL, Bcl-w overexpression protects cells from diverse death stimuli, including cytokine deprivation and γ-irradiation (Gibson et al., 1996).
# Survival assays were performed as described previously (O'Connor et al., 1998; Huang et al., 1998; Wilson-Annan et al., 2003; and references therein). Briefly, cells (2−5×10^4 per time point) were left untreated, deprived of their essential growth factor IL-3, exposed to 10Gy γ-irradiation (provided by a ^60Co source), 1-100 nM staurosprorine (Sigma). Cell viability was quantified by flow cytometric analysis of cells excluding 5 μg/mL PI (Sigma) using a FACScan (Becton Dickinson). Each time point was performed in triplicate on at least 3 independent clones of each genotype and the experiments repeated at least 3 times.
# Bcl-wΔC10 = target: T1, Bcl-wΔC10 (Homo sapiens, UniProt Q92843, A128E/Q133R); test: GST pull-down; assay type: binding
# T1 construct: made in house; host or cells: E. coli BL21(DE3)
# T1 sequence (Q92843 1-183 A128E/Q133R): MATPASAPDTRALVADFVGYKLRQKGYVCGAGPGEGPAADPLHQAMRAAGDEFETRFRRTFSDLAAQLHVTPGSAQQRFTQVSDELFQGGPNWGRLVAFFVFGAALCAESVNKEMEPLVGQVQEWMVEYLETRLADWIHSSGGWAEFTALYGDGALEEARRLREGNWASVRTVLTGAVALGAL
# From the text: (§1) Human Bcl-w and mouse BimL were expressed as glutathione-S-transferase (GST) fusion proteins in E. coli BL21(DE3) and purified by affinity chromatography using Glutathione Sepharose (APB; Amersham Pharmacia Biotech). Following purification of the GST-fusion proteins Bcl-w and Bim were released from GST using PreScission protease (APB) and then further purified by size exclusion chromatography using a Superdex-75 column. All the purified proteins have 5 additional N-terminal residues (GPLGS) as a result of cloning. Isotopically labelled proteins were prepared as described previously (Day et al., 1999). Samples of Bcl-wΔC10 used for NMR contained ˜1.0 mM protein in 50 mM sodium phosphate (pH 6.7), 70 mM NaCl, 2 mM tris-(2-carboxyethyl) phosphine (TCEP) and 0.04% sodium azide in H2O:^2H2O (95:5). The Bcl-wΔC5 sample contained 0.4 mM protein in the same buffer. Site specific mutants of BimL and Bcl-w were generated using a PCR based strategy as described previously (Day et al., 1999). The sequence of all clones was confirmed by sequencing.
# (§2) Direct interactions between Bcl-w and BimL were monitored using GST pull-down experiments. These were performed in 100 μl of PBS (phosphate buffered saline pH 7.3) containing 2 mM DTT. Typically excess soluble proteins were added to equivalent amounts of resin bound proteins. After incubation at room temperature for 30 minutes the resin was pelleted and then washed twice with 200 μl of PBS containing 0.2% Tween 20. After removal of the second wash 10 μl of SDS-PAGE sample buffer was added to each sample and the samples were boiled then loaded onto 16% polyacrylamide gels that were electrophoresed and stained with Coomassie Blue R250. The staining intensity of the bound soluble protein indicated the strength of the interaction between the two proteins.
# Bcl-wΔC29 [1] = target: T2, Bcl-wΔC29 (Homo sapiens, UniProt Q92843, Q133R); test: GST pull-down; assay type: binding
# T2 construct: GST (N, cleaved yes); made in house; host or cells: E. coli BL21(DE3)
# T2 sequence (Q92843 1-164 Q133R): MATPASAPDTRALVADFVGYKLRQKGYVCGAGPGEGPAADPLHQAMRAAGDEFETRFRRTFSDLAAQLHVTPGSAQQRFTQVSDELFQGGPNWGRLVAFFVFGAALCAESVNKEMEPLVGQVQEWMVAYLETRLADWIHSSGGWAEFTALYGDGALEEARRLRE
# From the text: as §1, §2
# Bcl-wΔC20 = target: T3, Bcl-wΔC20 (Homo sapiens, UniProt Q92843, Q133R); test: GST pull-down; assay type: binding
# T3 construct: made in house; host or cells: E. coli BL21(DE3)
# T3 sequence (Q92843 1-173 Q133R): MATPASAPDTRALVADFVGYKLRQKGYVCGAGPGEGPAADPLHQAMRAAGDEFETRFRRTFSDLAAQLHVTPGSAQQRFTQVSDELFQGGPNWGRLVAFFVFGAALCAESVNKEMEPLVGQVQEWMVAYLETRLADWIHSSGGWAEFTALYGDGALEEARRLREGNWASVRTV
# From the text: as §1, §2
# full length Bcl-w [2] = target: T4, full length Bcl-w (Homo sapiens, UniProt Q92843, Q133R); test: GST pull-down; assay type: binding; set-up: N-terminally FLAG-tagged full-length or C-terminally truncated Bcl-w; expressed in transfected cells; host or cells: 293T human embryonic kidney cells (pEF-based vector, transient)
# T4 sequence (Q92843 1-193 Q133R): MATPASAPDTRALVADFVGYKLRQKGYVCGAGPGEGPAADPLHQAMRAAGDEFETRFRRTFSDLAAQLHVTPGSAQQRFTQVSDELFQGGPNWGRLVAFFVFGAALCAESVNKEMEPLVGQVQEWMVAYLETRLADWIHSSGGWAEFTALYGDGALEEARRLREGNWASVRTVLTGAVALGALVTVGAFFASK
# From the text: as §1
# (§3) Direct interactions between Bcl-w and BimL were monitored using GST pull-down experiments. These were performed in 100 μl of PBS (phosphate buffered saline pH 7.3) containing 2 mM DTT. Typically excess soluble proteins were added to equivalent amounts of resin bound proteins. […]
# full length Bcl-w [3] = target: T4, full length Bcl-w; test: BIAcore surface plasmon resonance, Bcl-w protein in solution on immobilised Bim; assay type: binding; set-up: GST (N, cleaved yes); made in house; host or cells: E. coli BL21(DE3); conditions: for Kd: 1:1 Langmuir model, global analysis
# From the text: as §1
# (§4) Analysis of protein interactions by surface plasmon resonance was carried out on a BIAcore 2000 biosensor (BIAcore). For the immobilisation to BIAcore CM 5 sensorchips (BIAcore), wild-type or mutant Bim proteins were buffer exchanged into 20 mM Na-acetate, pH 4.5. N-hydroxysuccinimide coupling and binding analysis was done as described previously (Lackmann et al., 1997). In order to minimise mass-transport mediated effects the kinetic experiments were routinely carried out at 20 μl/min. Bcl-w binding at concentrations between 2 and 0.03 μM in running buffer (10 mM HEPES, pH 7.4, 150 mM NaCl, 3.4 mM EDTA, 0.005% Tween 20) was performed on sensorchip surfaces derivatised on parallel channels with a non-relevant protein, BimLΔC27 and BimLΔC27-L94A. The binding kinetics were derived from the sensorgrams following subtraction of baseline responses (measured on the control channel) by ‘global analysis’ using the BIA Evaluation software (vers. 3.02, BIAcore). The surface of the chip was regenerated with 50 mM 1,2-diethylamine containing 0.1% Triton X100, followed by two washes with running buffer.
# Bcl-wΔC29 [4] = target: T2, Bcl-wΔC29; test: BIAcore surface plasmon resonance, truncated Bcl-w in solution on immobilised Bim; assay type: binding; conditions: for Kd: Bcl-w truncated by 29 residues at the C-terminus
# From the text: as §1
# as §4, with “The surface of the chip was regenerated with 50 mM 1,2-diethylamine containing 0.1% Triton X100, followed by two washes with running buffer.” left out
# full-length Bcl-xL = target: T5, full-length Bcl-xL (Homo sapiens, UniProt Q07817); test: Co-immunoprecipitation from cell extracts; assay type: binding; conditions: FLAG-tagged full-length Bcl-xL
# T5 construct: FLAG-tagged full-length Bcl-xL or a C-terminally truncated mutant (ΔC24); expressed in transfected cells
# T5 sequence (Q07817 whole entry, species assumed, the tested form may be a part): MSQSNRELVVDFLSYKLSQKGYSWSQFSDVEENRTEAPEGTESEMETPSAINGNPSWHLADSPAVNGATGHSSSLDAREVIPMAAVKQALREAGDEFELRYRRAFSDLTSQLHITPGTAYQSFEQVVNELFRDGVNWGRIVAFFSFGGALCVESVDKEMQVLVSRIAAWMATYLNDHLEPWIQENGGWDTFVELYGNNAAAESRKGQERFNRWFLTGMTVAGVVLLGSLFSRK
# From the text: (§5) Bcl-xL and Bcl-2 also contain hydrophobic residues at their C-termini, similar to those found in Bcl-w (FIG. 1C), yet the low level of sequence identity following α8 and the absence of 3D-structural information, makes prediction of their conformation difficult. Since BCl-xL, like Bcl-w, is only partially membrane-bound in healthy cells (Hsu et al., 1997), we compared the ability of FLAG-tagged full-length Bcl-xL or a C-terminally truncated mutant (ΔC24) to bind to BimL or the […]L94A B3 mutant.
# Cell culture, stable transfections into FDC-P1, transient transfections into 293T human embryonic kidney cells, metabolic labelling with ^35S-methionine/cysteine (NEN) and co-immunoprecipitation have been previously described (O'Connor et al., 1998, Moriishi et al., 1999; Huang et al., 1998; Wilson-Annan et al., 2003). Briefly, mammalian pEF-based expression vectors for Bcl-w, BCl-xL, Bim, Bmf, Bad and Bik (O'Connor et al., 1998, Huang et al., 1998; Moriishi et al., 1999; Wilson-Annan et al., 2003) were transiently transfected using liposome mediated transfection (Lipofectamine™; Invitrogen). […] The immunoprecipitates were resolved by SDS-PAGE (Novex), transferred onto nitrocellulose membranes (APB) and the proteins detected by fluorography (Amplify; APB).
# Bcl-xLΔC24 = target: T6, Bcl-xLΔC24 (Homo sapiens, UniProt Q07817); test: Co-immunoprecipitation / GST pull-down; assay type: binding; conditions: C-terminally truncated Bcl-xL (ΔC24)
# T6 construct: expressed in transfected cells
# T6 sequence (Q07817 1-209 limits assumed, stated change not applied): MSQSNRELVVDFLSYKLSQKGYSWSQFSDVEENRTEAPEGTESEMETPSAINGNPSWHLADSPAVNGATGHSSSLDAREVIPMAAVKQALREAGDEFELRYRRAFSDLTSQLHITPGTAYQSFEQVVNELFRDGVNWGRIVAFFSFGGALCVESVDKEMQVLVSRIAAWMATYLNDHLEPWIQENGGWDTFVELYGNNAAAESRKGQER
# From the text: as §5
# as §3, with “proteins. After incubation at room temperature for 30 minutes the resin was pelleted and then washed twice with 200 μl of PBS containing 0.2% Tween 20.” for “proteins.”
# Cell culture, stable transfections into FDC-P1, transient transfections into 293T human embryonic kidney cells, metabolic labelling with ^35S-methionine/cysteine (NEN) and co-immunoprecipitation have been previously described (O'Connor et al., 1998, Moriishi et al., 1999; Huang et al., 1998; Wilson-Annan et al., 2003). […] The immunoprecipitates were resolved by SDS-PAGE (Novex), transferred onto nitrocellulose membranes (APB) and the proteins detected by fluorography (Amplify; APB).
binding in GST pull-down (Bcl-wΔC10),binding in GST pull-down (Bcl-wΔC29 [1]),binding in GST pull-down (Bcl-wΔC20),binding in GST pull-down (full length Bcl-w [2]),Kd (full length Bcl-w [3]) [nM],Kd (Bcl-wΔC29 [4]) [nM],Molecule,pro-survival activity (FDC-P1 myeloid cells),also measured
–,–,–,–,–,–,Bcl-wΔC3: C-terminal truncated variant of Bcl-w lacking 3 residues (protein) single chain: MATPASAPDTRALVADFVGYKLRQKGYVCGAGPGEGPAADPLHQAMRAAGDEFETRFRRTFSDLAAQLHVTPGSAQQRFTQVSDELFQGGPNWGRLVAFFVFGAALCAESVNKEMEPLVGQVQEWMVAYLETRLADWIHSSGGWAEFTALYGDGALEEARRLREGNWASVRTVLTGAVALGALVTVGAFF,fully active,–
bound,bound equally well,bound equally well,bound,24,11,"BimLΔC27: Purified, C-terminally truncated mouse BimL, a BH3-only protein (protein) GPLGSMAKQPSDVSSECDREGGQLQPAERPPQLRPGAPTSLQTEPQDRSPAPMSCDKSTQTPSPPCQAFNHYLSAMASIRQSQEEPEDLRPEIRIAQELRRIGDEFNETYTRRVFAND",–,increase in the association rate versus full length Bcl-w (Bcl-wΔC29 [4]; Bcl-wΔC29): three-fold
only bound wt BimLΔC27,bound equally well,bound equally well,only bound wt BimLΔC27,1600,13,BimLΔC27-L94A: Mutant version of C-terminally truncated BimL with BH3 domain mutation L94A (protein) GPLGSMAKQPSDVSSECDREGGQLQPAERPPQLRPGAPTSLQTEPQDRSPAPMSCDKSTQTPSPPCQAFNHYLSAMASIRQSQEEPEDLRPEIRIAQEARRIGDEFNETYTRRVFAND,–,decrease in the association rate versus wild-type Bim (full length Bcl-w [3]): 10 fold; increase in the dissociation rates versus wild-type Bim (full length Bcl-w [3]): five-fold; reduction of affinity versus wild-type Bim (full length Bcl-w [3]): over 60 fold
–,–,–,–,–,–,Bcl-wΔC5: C-terminal truncated variant of Bcl-w lacking 5 residues (protein) single chain: MATPASAPDTRALVADFVGYKLRQKGYVCGAGPGEGPAADPLHQAMRAAGDEFETRFRRTFSDLAAQLHVTPGSAQQRFTQVSDELFQGGPNWGRLVAFFVFGAALCAESVNKEMEPLVGQVQEWMVAYLETRLADWIHSSGGWAEFTALYGDGALEEARRLREGNWASVRTVLTGAVALGALVTVGA,behaved like the full-length protein,pro-survival activity (FDC-P1 myeloid cells; listed as ΔC5): fully active
–,–,–,–,–,–,"BimL-L94A: BimL with BH3 mutation L94A (protein, left off: small tags and cut ends) MAKQPSDVSSECDREGGQLQPAERPPQLRPGAPTSLQTEPQDRSPAPMSCDKSTQTPSPPCQAFNHYLSAMASIRQSQEEPEDLRPEIRIAQEARRIGDEFNETYTRRVFANDYREAEDHPQMVILQLLRFIFRLVWRRH",–,association in cell extracts (full-length Bcl-xL): associates only with wild-type BimL; binding (Bcl-xLΔC24): bound wild-type BimL and the L94A mutant equally
–,–,–,–,–,–,"Bcl-wΔC10: SEQ ID NO:2; Bcl-w derivative lacking the last 10 residues, Ala128 substituted with glutamate (protein, Bcl-w deltaC10 A128E, Bcl-w derivative lacking the last 10 residues, Ala128 substituted with glutamate) MATPASAPDTRALVADFVGYKLRQKGYVCGAGPGEGPAADPLHQAMRAAGDEFETRFRRTFSDLAAQLHVTPGSAQQRFTQVSDELFQGGPNWGRLVAFFVFGAALCAESVNKEMEPLVGQVQEWMVEYLETRLADWIHSSGGWAEFTALYGDGALEEARRLREGNWASVRTVLTGAVALGAL",biologically inert,–
